The target of assay [1] is T1, Mouse serum albumin (MSA; Albumin Bioscience Cat No. 2601) (mouse, UniProt P07724 25-608). As to the kind of experiment: SPR Biacore 8K+, MSA on CM5 chip, pH 6.0, 1:1 fit.
Assay [2] concerns the target T1, Mouse serum albumin (MSA; Albumin …). Nature of the assay: SPR Biacore 8K+, MSA on CM5 chip, pH 7.4, 1:1 fit.
The target of assay [3] is T2, Human serum albumin (HSA; Sigma-Aldrich Cat No. A8763) (human, UniProt P02768 25-609). As to the kind of experiment: SPR Biacore 8K+, HSA on CM5 chip, pH 6.0, 1:1 fit.
The target in assay [4] is T2, Human serum albumin (HSA; Sigma-Aldrich …). As to the kind of experiment: SPR Biacore 8K+, HSA on CM5 chip, pH 7.4, 1:1 fit.
The target of assay [5] is T3, Human FcRn (biotinylated human FcRn) (human, UniProt P61769 21-119).
T3 construct: Biotinylated human FcRn captured on a Series S Sensor Chip SA; also called human neonatal Fc receptor; hFcRn
Nature of the assay: SPR Biacore 8K+, biotinylated hFcRn on SA chip (~500-600 RU), pH 6.0, bivalent analyte fit (kd1).

In assay [6] the target is T3, Human FcRn (biotinylated human FcRn). Nature of the assay: SPR Biacore 8K+, biotinylated hFcRn on SA chip (~500-600 RU), pH 6.0, bivalent analyte fit (KD1).
For assay [7] the target is unchanged. As to the kind of experiment: SPR Biacore 8K+, biotinylated hFcRn on SA chip (~500-600 RU), pH 6.0, bivalent analyte fit (ka1).
For assay [8] the target is unchanged. Nature of the assay: SPR Biacore 8K+, biotinylated hFcRn on SA chip (~500-600 RU), pH 6.0, bivalent analyte fit.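 Note: analytes were Fc proteins binding to biotinylated human FcRn captured on a Series S streptavidin sensor chip.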

B1: TP019 (Fc fusion)
chain 1: DVQLVESGGGLVQPGGSLRLSCAASGLTFSTNPMYWYRQAPGKQRELVASISSRGITNYADSVKGRFTISRDNSKNTVYLQMNSLRPEDTAVYYCRLASLSSGTVYWGQGTLVTVSSDKTHTCPPCPAPEAAGGPSVFLFPPKPKDTLMASRTPEVTCVVVDVSQEDPEVQFNWYVDGVEVHNAKTKPREEQFNSTYRVVSVLTVLAQDWLNGKEYKCKVSNKGLPSSIEKTISKAKGQPREPQVYTLPPCQEEMTKNQVSLWCLVKGFYPSDIAVEWESNGQPENNYKTTPPVLDSDGSFFLYSKLTVDKSRWQEGNVFSCSVMHEALHNAYTQKSLSLSLGGGGGSGGGGSGGGGSGGGGSGGGGSGGGGSGGGGSEVQLVESGGGVVQPGGSLRLSCAASGFTFRSFGMSWVRQAPGKGPEWVSSISGSGSDTLYADSVKGRFTISRDNSKNTLYLQMNSLRPEDTALYYCTIGGSLSRSSQGTLVTVSS
chain 2: DKTHTCPPCPAPEAAGGPSVFLFPPKPKDTLMASRTPEVTCVVVDVSQEDPEVQFNWYVDGVEVHNAKTKPREEQFNSTYRVVSVLTVLAQDWLNGKEYKCKVSNKGLPSSIEKTISKAKGQPREPQVCTLPPSQEEMTKNQVSLSCAVKGFYPSDIAVEWESNGQPENNYKTTPPVLDSDGSFFLVSKLTVDKSRWQEGNVFSCSVMHEALHNAYTQKSLSLSLG
For the molecule B1, the Kd in assay [1] turned out to be 50 nM; in assay [2] it was 50 nM; in assay [3], 26 nM; in assay [4], 51 nM. Also, the koff came out at 0.5 s⁻¹ in assay [1], 0.5 s⁻¹ in assay [2], 0.0016 s⁻¹ in assay [3] and 0.0019 s⁻¹ in assay [4]. Also, the kon turned out to be 1e+07 M⁻¹ s⁻¹ in assay [1], 1e+07 M⁻¹ s⁻¹ in assay [2], 61000 M⁻¹ s⁻¹ in assay [3] and 36000 M⁻¹ s⁻¹ in assay [4].

B2: TPP-66143 (Fc fusion)
chain 1: DVQLVESGGGVVQAGGSLSISCAASGGSLSNYVLGWFRQAPGKEREFVAAINWRGDITIGPPNVEGRFTISRDNAKNTGYLQMNSLAPDDTALYYCGAGTPLNPGAYIYDWSYDYWGRGTLVTVSSDKTHTCPPCPAPEAAGGPSVFLFPPKPKDTLMISRTPEVTCVVVDVSQEDPEVQFNWYVDGVEVHNAKTKPREEQFNSTYRVVSVLTVLHQDWLNGKEYKCKVSNKGLPSSIEKTISKAKGQPREPQVYTLPPCQEEMTKNQVSLWCLVKGFYPSDIAVEWESNGQPENNYKTTPPVLDSDGSFFLYSKLTVDKSRWQEGNVFSCSVMHEALHNHYTQKSLSLSLGGGGGSGGGGSGGGGSGGGGSGGGGSGGGGSGGGGSEVQLVESGGGVVQAGGSLSISCAASGGSLSNYVLGWFRQAPGKEREFVAAINWRGDITIGPPNVEGRFTISRDNAKNTGYLQMNSLAPDDTALYYCGAGTPLNPGAYIYDWSYDYWGRGTLVTVSSA
chain 2: DVQLVESGGGVVQAGGSLSISCAASGGSLSNYVLGWFRQAPGKEREFVAAINWRGDITIGPPNVEGRFTISRDNAKNTGYLQMNSLAPDDTALYYCGAGTPLNPGAYIYDWSYDYWGRGTLVTVSSDKTHTCPPCPAPEAAGGPSVFLFPPKPKDTLMISRTPEVTCVVVDVSQEDPEVQFNWYVDGVEVHNAKTKPREEQFNSTYRVVSVLTVLHQDWLNGKEYKCKVSNKGLPSSIEKTISKAKGQPREPQVCTLPPSQEEMTKNQVSLSCAVKGFYPSDIAVEWESNGQPENNYKTTPPVLDSDGSFFLVSKLTVDKSRWQEGNVFSCSVMHEALHNRFTQKSLSLSLG
notes: IgG4 FALA Fc knob-in-hole (hole chain H435R, Y436F) with three irrelevant ISVDs; control; also called control ISVD-Fc polypeptide
With B2, the koff in assay [5] was 0.0779 s⁻¹. In assay [6], this molecule came in with a Kd of 941 nM. Further, in assay [7], the kon was determined as 82800 M⁻¹ s⁻¹. In addition, in assay [8], the KD2 was found to be 4.24 M, the ka2 was 3.22e-05 1/RUs and the kd2 was 0.000136 s⁻¹.

B3: TPP-66176 (Fc fusion)
chain: DVQLVESGGGVVQAGGSLSISCAASGGSLSNYVLGWFRQAPGKEREFVAAINWRGDITIGPPNVEGRFTISRDNAKNTGYLQMNSLAPDDTALYYCGAGTPLNPGAYIYDWSYDYWGRGTLVTVSSDKTHTCPSCPAPEAAGGPSVFLFPPKPKDTLMISRTPEVTCVVVDVSQEDPEVQFNWYVDGVEVHNAKTKPREEQFNSTYRVVSVLTVLHQDWLNGKEYKCKVSNKGLPSSIEKTISKAKGQPREPQVYTLPPSQEEMTKNQVSLTCLVKGFYPSDIAVEWESNGQPENNYKTTPPVLDSDGSFFLYSKLTVDKSRWQEGNVFSCSVMHEALHNHYTQKSLSLSLGGGGGSGGGGSGGGGSGGGGSGGGGSGGGGSGGGGSEVQLVESGGGVVQAGGSLSISCAASGGSLSNYVLGWFRQAPGKEREFVAAINWRGDITIGPPNVEGRFTISRDNAKNTGYLQMNSLAPDDTALYYCGAGTPLNPGAYIYDWSYDYWGRGTLVTVSSA
notes: Symmetrical IgG4 FALA Fc fusion without knob-in-hole mutations, four irrelevant ISVDs; control; also called symmetrical ISVD-Fc polypeptide
Molecule B3 returned a koff in assay [5] of 0.0794 s⁻¹. The molecule further registered a Kd in assay [6] of 1260 nM. The molecule further displayed a kon in assay [7] of 62900 M⁻¹ s⁻¹. Further, in assay [8], the KD2 amounted to 4.53 M, the ka2 is 3.79e-05 1/RUs and the kd2 stood at 0.000172 s⁻¹.

B4: TPP-66175 (Fc fusion)
chain 1: DVQLVESGGGVVQAGGSLSISCAASGGSLSNYVLGWFRQAPGKEREFVAAINWRGDITIGPPNVEGRFTISRDNAKNTGYLQMNSLAPDDTALYYCGAGTPLNPGAYIYDWSYDYWGRGTLVTVSSDKTHTCPPCPAPEAAGGPSVFLFPPKPKDTLYITREPEVTCVVVDVSQEDPEVQFNWYVDGVEVHNAKTKPREEQFNSTYRVVSVLTVLHQDWLNGKEYKCKVSNKGLPSSIEKTISKAKGQPREPQVYTLPPCQEEMTKNQVSLWCLVKGFYPSDIAVEWESNGQPENNYKTTPPVLDSDGSFFLYSKLTVDKSRWQEGNVFSCSVMHEALHNHYTQKSLSLSLGGGGGSGGGGSGGGGSGGGGSGGGGSGGGGSGGGGSEVQLVESGGGVVQAGGSLSISCAASGGSLSNYVLGWFRQAPGKEREFVAAINWRGDITIGPPNVEGRFTISRDNAKNTGYLQMNSLAPDDTALYYCGAGTPLNPGAYIYDWSYDYWGRGTLVTVSSA
chain 2: DVQLVESGGGVVQAGGSLSISCAASGGSLSNYVLGWFRQAPGKEREFVAAINWRGDITIGPPNVEGRFTISRDNAKNTGYLQMNSLAPDDTALYYCGAGTPLNPGAYIYDWSYDYWGRGTLVTVSSDKTHTCPPCPAPEAAGGPSVFLFPPKPKDTLYITREPEVTCVVVDVSQEDPEVQFNWYVDGVEVHNAKTKPREEQFNSTYRVVSVLTVLHQDWLNGKEYKCKVSNKGLPSSIEKTISKAKGQPREPQVCTLPPSQEEMTKNQVSLSCAVKGFYPSDIAVEWESNGQPENNYKTTPPVLDSDGSFFLVSKLTVDKSRWQEGNVFSCSVMHEALHNRFTQKSLSLSLG
notes: IgG4 FALA Fc (YTE) knob-in-hole with three irrelevant ISVDs; control; also called control ISVD-Fc(YTE) polypeptide
In assay [5], B4 yielded a koff of 0.0167 s⁻¹. The molecule further showed a Kd in assay [6] of 179 nM. The molecule further came in with a kon in assay [7] of 93300 M⁻¹ s⁻¹. Also, in assay [8], the KD2 was 3.98 M, the ka2 was 0.0232 1/RUs and the kd2 was 0.0922 s⁻¹.

Source of the values: US20240368250A1 (Ablynx, published 2024).
